Target: the molecule itself
Test: mass photometry; purified TANGO2.Flag; mass distribution; conditions not described

B1: TANGO2 isoform 1-Flag (TANGO2.Iso1-Flag), purified (natural protein, human, UniProt Q6ICL3-1 1-276, looked up)
chain: MCIIFFKFDPRPVSKNAYRLILAANRDEFYSRPSKLADFWGNNNEILSGLDMEEGKEGGTWLGISTRGKLAALTNYLQPQLDWQARGRGELVTHFLTTDVDSLSYLKKVSMEGHLYNGFNLIAADLSTAKGDVICYYGNRGEPDPIVLTPGTYGLSNALLETPWRKLCFGKQLFLEAVERSQALPKDVLIASLLDVLNNEEAQLPDPAIEDQGGEYVQPMLSKYAAVCVRCPGYGTRTNTIILVDADGHVTFTERSMMDKDLSHWETRTYEFTLQS
notes: TANGO2 isoform 1, human, UniProt Q6ICL3-1; C-terminal in-frame fusion with the Flag peptide; also called TANGO2.Flag; purified TANGO2
- binding result: binds
